Experimental data published in patent US20140044713A1 (KONINKLIJKE NEDERLANDSE AKADEMIE VAN WETENSCHAPPEN, published 2014).
Values belong to the binder of their own block, whether it stands above or below them.

Key:
[1] = molecular target: T1, Lgr5-exo-Fc (leucine-rich-repeat exodomain of Lgr5, amino acids 1 to 546, human IgG-Fc fusion protein) (human, UniProt O75473 22-546); assay: SPR array imaging (IBIS MX96), Rspo1-FH captured on anti-FLAG, LGR5-Fc at 45, 23 and 11 nM, 1:1 discrete interaction model
T1 construct: range 1-546; also called LGR5-Fc; huLGR5-Fc; not shown: human IgG-Fc
T1 sequence (looked up): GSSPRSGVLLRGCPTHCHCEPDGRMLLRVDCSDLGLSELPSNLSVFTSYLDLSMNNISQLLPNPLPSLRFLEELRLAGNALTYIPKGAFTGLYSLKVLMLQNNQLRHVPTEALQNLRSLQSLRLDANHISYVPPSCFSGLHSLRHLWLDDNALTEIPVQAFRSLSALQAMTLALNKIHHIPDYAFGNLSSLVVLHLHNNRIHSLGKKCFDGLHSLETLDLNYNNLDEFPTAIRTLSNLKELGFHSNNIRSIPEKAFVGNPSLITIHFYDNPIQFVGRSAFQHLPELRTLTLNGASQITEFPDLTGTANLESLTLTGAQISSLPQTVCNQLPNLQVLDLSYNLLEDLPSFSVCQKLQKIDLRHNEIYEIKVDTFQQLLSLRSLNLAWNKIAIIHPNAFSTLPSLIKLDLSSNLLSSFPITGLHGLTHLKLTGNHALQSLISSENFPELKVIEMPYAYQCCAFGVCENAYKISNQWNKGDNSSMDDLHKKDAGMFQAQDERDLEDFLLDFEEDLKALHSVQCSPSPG
From the text: This allowed us to perform a binding experiment using Surface Plasmon Resonance array imaging.

LRP6 (endogenous) = molecular target: T2, LRP6 (endogenous) (human, UniProt O75581 20-1613); assay: TAP (anti-FLAG, anti-HA) + mass spectrometry, 293T cells incubated with the soluble tagged bait, Exp 9
T2 construct: whole, on cells
Protocol: (§1) Left panel (Exps 1-7): HEK293T cells were transiently transfected, and LS174T cells were stably, transfected with the indicated tagged proteins. Right panel (Exps 8-9): HEK293T cells were incubated with the indicated tagged soluble proteins at 1 μg/ml. Sequential immunoprecipitation was performed by anti-FLAG and anti-HA antibodies and the associated complexes were analysed by mass spectrometry. Number of assigned spectra, number of unique peptides and the MASCOT Protein Score are given for selected identified proteins.

LRP5 (endogenous) = molecular target: T3, LRP5 (endogenous) (human, UniProt O75197 32-1615); assay: as above
T3 construct: whole, on cells
Protocol: as §1

[2] = molecular target: T1, Lgr5-exo-Fc (leucine-rich-repeat …); assay: SPR array imaging (IBIS MX96), RSpo-1-FH captured on anti-Flag spots of decreasing density, 1:1 model, extrapolated to Rmax=0
From the text: FIG. 15: Rspondin1-Lgr5 interaction KD determination by Surface Plasmon Resonance array imaging. […] In IBIS-SPRint software (version 2) an exponential fitting routine y=a*ebx was used for extrapolating the values of KD and kd at Rmax=0 (arrows).
Method: IBIS-SPRinT 2.0. An array of anti-Flag spots with decreasing densities was printed on a preactivated sensor surface (IBIS Technologies, Enschede, the Netherlands) using a continuous flow microspotter (CFM) (Wasatch Microfluidics, Utah, US).

Rspo1-Fc fusion protein = molecular target: T4, Rspo1-Fc fusion protein (Homo sapiens (Human), UniProt Q2MKA7 21-263, limits assumed); assay: HEK293T cells transfected with the tagged Lgr, incubated with Rspo1-Fc, protein G immunoprecipitation, anti-FLAG Western blot
T4 construct: also called Rspondin1 IgFc fusion protein; not shown: Fc (IgFc) part
From the text: FIG. 7A: Rspondin1 binds to Lgr4, Lgr5 and Lgr6. […] Bottom: Input of tagged proteins.

FLAG/HA-tagged Lgr4 = molecular target: T5, FLAG/HA-tagged Lgr4 (human, UniProt Q9BXB1 25-951); assay: TAP (anti-FLAG, anti-HA) + mass spectrometry, bait stably expressed in LS174T cells, Exp 2
T5 construct: whole, on cells; also called Lgr4 bait; FH-tagged human Lgr4; not shown: FLAG/HA double tag
Protocol: as §1

T3 sequence (O75197 32-1615): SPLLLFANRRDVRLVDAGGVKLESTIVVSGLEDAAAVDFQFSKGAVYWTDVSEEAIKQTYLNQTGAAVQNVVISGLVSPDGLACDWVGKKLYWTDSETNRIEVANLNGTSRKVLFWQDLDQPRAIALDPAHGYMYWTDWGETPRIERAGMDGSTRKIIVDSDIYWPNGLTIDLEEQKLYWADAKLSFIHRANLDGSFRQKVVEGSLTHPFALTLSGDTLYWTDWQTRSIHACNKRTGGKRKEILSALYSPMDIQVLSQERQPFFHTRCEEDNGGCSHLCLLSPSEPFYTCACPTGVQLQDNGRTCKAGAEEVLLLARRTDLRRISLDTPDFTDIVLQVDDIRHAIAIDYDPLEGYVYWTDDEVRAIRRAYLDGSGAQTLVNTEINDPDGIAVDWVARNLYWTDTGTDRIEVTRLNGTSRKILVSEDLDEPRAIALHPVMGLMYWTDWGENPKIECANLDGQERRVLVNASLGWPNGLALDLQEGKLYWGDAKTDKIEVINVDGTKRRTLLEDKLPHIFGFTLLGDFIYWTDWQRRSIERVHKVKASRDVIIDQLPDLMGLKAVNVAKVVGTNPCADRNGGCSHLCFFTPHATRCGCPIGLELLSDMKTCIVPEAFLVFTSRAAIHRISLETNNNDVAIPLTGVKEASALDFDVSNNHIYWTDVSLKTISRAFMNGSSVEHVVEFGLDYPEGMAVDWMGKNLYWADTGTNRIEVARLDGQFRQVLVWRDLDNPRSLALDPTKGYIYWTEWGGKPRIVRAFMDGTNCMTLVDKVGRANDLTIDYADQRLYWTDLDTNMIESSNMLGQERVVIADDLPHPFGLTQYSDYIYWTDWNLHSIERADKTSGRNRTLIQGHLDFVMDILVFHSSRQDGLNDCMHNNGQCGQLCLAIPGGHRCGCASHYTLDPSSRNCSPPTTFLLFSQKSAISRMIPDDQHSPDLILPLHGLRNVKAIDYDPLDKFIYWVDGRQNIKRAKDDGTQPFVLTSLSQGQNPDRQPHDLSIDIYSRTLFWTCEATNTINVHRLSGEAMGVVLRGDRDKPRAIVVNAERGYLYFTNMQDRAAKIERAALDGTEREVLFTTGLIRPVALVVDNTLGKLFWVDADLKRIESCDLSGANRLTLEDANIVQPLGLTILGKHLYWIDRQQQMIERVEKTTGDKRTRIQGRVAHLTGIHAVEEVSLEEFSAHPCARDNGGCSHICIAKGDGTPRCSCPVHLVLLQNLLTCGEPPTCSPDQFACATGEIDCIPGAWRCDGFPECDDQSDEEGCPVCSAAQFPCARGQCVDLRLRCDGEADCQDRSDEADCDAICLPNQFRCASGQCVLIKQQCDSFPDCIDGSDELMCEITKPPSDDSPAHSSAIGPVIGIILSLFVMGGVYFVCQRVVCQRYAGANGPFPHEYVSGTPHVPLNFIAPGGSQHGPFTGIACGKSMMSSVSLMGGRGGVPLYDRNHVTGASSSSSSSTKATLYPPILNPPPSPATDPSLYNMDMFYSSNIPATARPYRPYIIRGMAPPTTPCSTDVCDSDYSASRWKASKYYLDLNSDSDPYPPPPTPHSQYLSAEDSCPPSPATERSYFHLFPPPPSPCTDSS
T2 sequence (O75581 20-1613): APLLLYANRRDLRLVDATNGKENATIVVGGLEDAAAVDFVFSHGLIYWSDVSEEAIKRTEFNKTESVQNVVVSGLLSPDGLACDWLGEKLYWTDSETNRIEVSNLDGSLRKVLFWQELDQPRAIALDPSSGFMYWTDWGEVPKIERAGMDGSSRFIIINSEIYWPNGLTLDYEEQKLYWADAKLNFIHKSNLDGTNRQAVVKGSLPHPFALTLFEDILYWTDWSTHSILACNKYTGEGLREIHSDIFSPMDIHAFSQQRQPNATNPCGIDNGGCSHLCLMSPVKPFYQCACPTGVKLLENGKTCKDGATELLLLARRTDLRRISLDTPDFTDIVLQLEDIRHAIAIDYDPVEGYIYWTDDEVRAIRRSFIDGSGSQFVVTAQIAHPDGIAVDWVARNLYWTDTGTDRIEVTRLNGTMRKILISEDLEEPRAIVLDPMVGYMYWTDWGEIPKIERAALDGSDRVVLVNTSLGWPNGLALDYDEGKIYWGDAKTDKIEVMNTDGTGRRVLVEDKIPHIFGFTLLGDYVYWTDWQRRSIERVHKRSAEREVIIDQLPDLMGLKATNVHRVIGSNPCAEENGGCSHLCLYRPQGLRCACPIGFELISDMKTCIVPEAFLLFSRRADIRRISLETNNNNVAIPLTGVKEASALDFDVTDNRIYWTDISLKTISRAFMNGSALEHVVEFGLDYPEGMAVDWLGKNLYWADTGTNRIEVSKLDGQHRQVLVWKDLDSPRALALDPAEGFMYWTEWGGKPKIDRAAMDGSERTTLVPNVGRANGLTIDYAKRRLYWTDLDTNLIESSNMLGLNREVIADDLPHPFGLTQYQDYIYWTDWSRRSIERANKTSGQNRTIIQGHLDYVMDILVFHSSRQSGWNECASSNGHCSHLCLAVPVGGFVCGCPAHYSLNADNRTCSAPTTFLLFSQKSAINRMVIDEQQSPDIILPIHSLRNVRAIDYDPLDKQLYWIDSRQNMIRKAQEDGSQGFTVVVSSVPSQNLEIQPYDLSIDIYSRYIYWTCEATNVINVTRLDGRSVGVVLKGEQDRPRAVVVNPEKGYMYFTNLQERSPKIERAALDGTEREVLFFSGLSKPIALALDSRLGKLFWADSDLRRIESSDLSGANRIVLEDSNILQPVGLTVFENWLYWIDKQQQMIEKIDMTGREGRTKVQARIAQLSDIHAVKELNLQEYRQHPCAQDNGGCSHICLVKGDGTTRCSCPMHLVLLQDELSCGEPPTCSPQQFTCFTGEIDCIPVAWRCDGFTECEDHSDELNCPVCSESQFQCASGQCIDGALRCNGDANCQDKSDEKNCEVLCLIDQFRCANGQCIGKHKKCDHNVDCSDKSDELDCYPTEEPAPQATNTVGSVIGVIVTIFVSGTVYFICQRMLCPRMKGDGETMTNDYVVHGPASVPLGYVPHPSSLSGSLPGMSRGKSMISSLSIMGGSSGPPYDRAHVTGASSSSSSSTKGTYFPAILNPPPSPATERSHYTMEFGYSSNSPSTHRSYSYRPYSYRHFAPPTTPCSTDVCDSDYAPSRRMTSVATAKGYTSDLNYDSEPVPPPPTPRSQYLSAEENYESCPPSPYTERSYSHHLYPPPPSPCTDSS

Kd [1]: ~3 nM
binding result (LRP6 (endogenous)): no binding (tested: 1 µg/ml)
binding result (LRP5 (endogenous)): no binding (tested: 1 µg/ml)
Kd [2]: 3.07 nM
koff [2]: 0.000155 s⁻¹
kon [2]: 50400 M⁻¹ s⁻¹
B1: double (FLAG-HA)-tagged version of human Rspo-1 (Rspo1-FH) (ligand)
chain: SRGIKGKRQRRISAEGSQACAKGCELCSEVNGCLKCSPKLFILLERNDIRQVGVCLPSCPPGYFDARNPDMNKCIKCKIEHCEACFSHNFCTKCKEGLYLHKGRCYPACPEGSSAANGTMECSSPAQCEMSEWSPWGPCSKKQQLCGFRRGSEERTRRVLHAPVGDHAACSDTKETRRCTVRRVPCPEGQKRRKGGQGRRENANRNLARKESKEAGAGSRRRKGQQQQQQQGTVGPLTSAGPA
notes: Used as HEK293T conditioned medium; also called huRSPO1-FH; not shown: FLAG-HA double tag

binding result (Rspo1-Fc fusion protein): no binding (tested: ~1 µg/ml)
B2: Lgr1 (receptor, not shown: small tags and cut ends)
chain: CHHRICHCSNRVFLCQESKVTEIPSDLPRNAIELRFVLTKLRVIQKGAFSGFGDLEKIEISQNDVLEVIEADVFSNLPKLHEIRIEKANNLLYINPEAFQNLPNLQYLLISNTGIKHLPDVHKIHSLQKVLLDIQDNINIHTIERNSFVGLSFESVILWLNKNGIQEIHNCAFNGTQLDELNLSDNNNLEELPNDVFHGASGPVILDISRTRIHSLPSYGLENLKKLRARSTYNLKKLPTLEKLVALMEASLTYPSHCCAFANWRRQISELHPICNKSILRQEVDYMTQARGQRSSLAEDNESSYSRGFDMTYTEFDYDLCNEVVDVTCSPKPDAFNPCEDIMGYNILRVLIWFISILAITGNIIVLVILTTSQYKLTVPRFLMCNLAFADLCIGIYLLLIASVDIHTKSQYHNYAIDWQTGAGCDAAGFFTVFASELSVYTLTAITLERWHTITHAMQLDCKVQLRHAASVMVMGWIFAFAAALFPIFGISSYMKVSICLPMDIDSPLSQLYVMSLLVLNVLAFVVICGCYIHIYLTVRNPNIVSSSSDTRIAKRMAMLIFTDFLCMAPISFFAISASLKVPLITVSKAKILLVLFHPINSCANPFLYAIFTKNFRRDFFILLSKCGCYEMQAQIYRTETSSTVHNTHPRNGHCSSAPRVTSGSTYILVPLSHLAQN
notes: Control lane of the Rspo1-Fc pull-down

binding result (FLAG/HA-tagged Lgr4): no binding
B3: Frz6 (endogenous, LS174T cells) (receptor, human, UniProt O60353 19-706, looked up)
chain: HSLFTCEPITVPRCMKMAYNMTFFPNLMGHYDQSIAAVEMEHFLPLANLECSPNIETFLCKAFVPTCIEQIHVVPPCRKLCEKVYSDCKKLIDTFGIRWPEELECDRLQYCDETVPVTFDPHTEFLGPQKKTEQVQRDIGFWCPRHLKTSGGQGYKFLGIDQCAPPCPNMYFKSDELEFAKSFIGTVSIFCLCATLFTFLTFLIDVRRFRYPERPIIYYSVCYSIVSLMYFIGFLLGDSTACNKADEKLELGDTVVLGSQNKACTVLFMLLYFFTMAGTVWWVILTITWFLAAGRKWSCEAIEQKAVWFHAVAWGTPGFLTVMLLAMNKVEGDNISGVCFVGLYDLDASRYFVLLPLCLCVFVGLSLLLAGIISLNHVRQVIQHDGRNQEKLKKFMIRIGVFSGLYLVPLVTLLGCYVYEQVNRITWEITWVSDHCRQYHIPCPYQAKAKARPELALFMIKYLMTLIVGISAVFWVGSKKTCTEWAGFFKRNRKRDPISESRRVLQESCEFFLKHNSKVKHKKKHYKPSSHKLKVISKSMGTSTGATANHGTSAVAITSHDYLGQETLTEIQTSPETSMREVKADGASTPRLREQDCGEPASPAASISRLSGEQVDGKGQAGSVSESARSEGRISPKSDITDTGLAQSNNLQVPSSSEPSSLKGSTSLLVHPVSGVRKEQGGGCHSDT
notes: whole, on cells
